Our source for the stoichiometry N values is article PMC8453484.

For orientation: stoichiometry N means the number of molecules, sites or subunits per partner or assembly.

The target of assay [1] is HECT domain of HUWE1 (residues 3993-4374), wild type (human) (UniProt Q7Z6Z7). Kind of assay: covalent labelling with an activity-based probe (SDS-PAGE, Coomassie); 10 μM E3 and 100 μM Ub-Prg in 50 mM HEPES, 100 mM NaCl, pH 8.0 at 30 °C, quenched with SDS loading dye; only the covalent (vinyl thioether) product is seen.
Assay [2] has as its target HECT domain of NEDD4-1 (514-900) (UniProt P46934). The description is as above.
Chain of UniProt P46934 (P46934 933-1319): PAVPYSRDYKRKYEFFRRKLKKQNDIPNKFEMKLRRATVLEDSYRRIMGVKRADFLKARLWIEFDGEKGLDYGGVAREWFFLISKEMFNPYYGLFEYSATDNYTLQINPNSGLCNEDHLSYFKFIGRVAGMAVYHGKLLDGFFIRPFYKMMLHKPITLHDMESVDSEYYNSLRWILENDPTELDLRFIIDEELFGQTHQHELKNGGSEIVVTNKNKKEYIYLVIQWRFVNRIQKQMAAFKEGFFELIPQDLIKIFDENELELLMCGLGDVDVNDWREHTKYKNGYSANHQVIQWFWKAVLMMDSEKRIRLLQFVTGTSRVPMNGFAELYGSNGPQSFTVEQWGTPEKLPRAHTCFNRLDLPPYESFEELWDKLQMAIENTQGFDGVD

Chain of UniProt Q7Z6Z7 (Q7Z6Z7 3993-4374): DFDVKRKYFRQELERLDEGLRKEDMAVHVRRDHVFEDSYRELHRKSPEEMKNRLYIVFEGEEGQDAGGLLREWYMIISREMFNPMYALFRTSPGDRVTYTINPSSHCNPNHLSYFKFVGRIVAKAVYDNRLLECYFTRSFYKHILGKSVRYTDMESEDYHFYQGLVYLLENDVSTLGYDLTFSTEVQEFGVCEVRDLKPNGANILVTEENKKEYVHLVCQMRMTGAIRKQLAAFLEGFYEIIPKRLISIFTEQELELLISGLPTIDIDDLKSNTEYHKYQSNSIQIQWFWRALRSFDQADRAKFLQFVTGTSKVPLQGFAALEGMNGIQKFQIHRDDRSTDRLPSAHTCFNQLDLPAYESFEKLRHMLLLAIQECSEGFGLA

ubiquitin-propargylamine: the stoichiometry N in assay [1] and in assay [2] was 1 throughout.
